Assays:
[1] = target: NKp46–Ig (ACROBiosystems), used for MST and BLI (human) (UniProt O76036); test: MST
[2] = target: MYC-tagged NKp46 (extracellular domain) (human) (UniProt O76036); test: MST

Substance	Kd [1]	Kd [2]
influenza haemagglutinin, His-tagged (natural protein)	1.46 µM	–
CRT P domain fused to the Fc region of human Ig (Fc fusion)	–	41.2 µM
